Measured values as given in patent publication US20190360025A1.

How the values were obtained:
[1] = biological target: interleukin 6 (IL-6), R&D Systems 206-IL-010 (UniProt P05231); experiment: c-PLA, buffer; IL-6 1.00E-08 M
[2] = biological target: interleukin 6 (IL-6), R&D Systems 206-IL-010 (UniProt P05231); experiment: c-PLA, buffer; IL-6 1.00E-09 M
[3] = biological target: interleukin 6 (IL-6), R&D Systems 206-IL-010 (UniProt P05231); experiment: c-PLA, buffer; IL-6 1.00E-10 M
[4] = biological target: interleukin 6 (IL-6), R&D Systems 206-IL-010 (UniProt P05231); experiment: c-PLA, buffer; IL-6 1.00E-11 M
[5] = biological target: interleukin 6 (IL-6), R&D Systems 206-IL-010 (UniProt P05231); experiment: c-PLA, buffer; IL-6 1.00E-12 M
[6] = biological target: interleukin 6 (IL-6), R&D Systems 206-IL-010 (UniProt P05231); experiment: c-PLA, buffer; IL-6 1.00E-13 M
[7] = biological target: interleukin 6 (IL-6), R&D Systems 206-IL-010 (UniProt P05231); experiment: c-PLA, buffer; IL-6 1.00E-14 M
[8] = biological target: interleukin 6 (IL-6), R&D Systems 206-IL-010 (UniProt P05231); experiment: t-PLA, buffer; IL-6 1.00E-08 M
[9] = biological target: interleukin 6 (IL-6), R&D Systems 206-IL-010 (UniProt P05231); experiment: t-PLA, buffer; IL-6 1.00E-09 M
[10] = biological target: interleukin 6 (IL-6), R&D Systems 206-IL-010 (UniProt P05231); experiment: t-PLA, buffer; IL-6 1.00E-10 M
[11] = biological target: interleukin 6 (IL-6), R&D Systems 206-IL-010 (UniProt P05231); experiment: t-PLA, buffer; IL-6 1.00E-11 M
[12] = biological target: interleukin 6 (IL-6), R&D Systems 206-IL-010 (UniProt P05231); experiment: t-PLA, buffer; IL-6 1.00E-12 M
[13] = biological target: interleukin 6 (IL-6), R&D Systems 206-IL-010 (UniProt P05231); experiment: t-PLA, buffer; IL-6 1.00E-13 M
[14] = biological target: interleukin 6 (IL-6), R&D Systems 206-IL-010 (UniProt P05231); experiment: t-PLA, buffer; IL-6 1.00E-14 M
[15] = biological target: interleukin 6 (IL-6), R&D Systems 206-IL-010 (UniProt P05231); experiment: SPR (Biacore T200), 1:1 global fit
[16] = biological target: interleukin 6 (IL-6), R&D Systems 206-IL-010 (UniProt P05231); experiment: SPR, isoaffinity graph
[17] = biological target: interleukin 6 (IL-6), R&D Systems 206-IL-010 (UniProt P05231); experiment: SPR (Biacore T200), biotinylated antibody on CAP chip, 1:1 fit
[18] = biological target: interleukin 6 (IL-6), R&D Systems 206-IL-010 (UniProt P05231); experiment: BLI (Octet RED), antibody on protein G sensors, 1:1 global fit
[19] = biological target: interleukin 6 (IL-6), R&D Systems 206-IL-010 (UniProt P05231); experiment: SPR, off-rate given by the software, beyond the sensitivity range of the instrument
[20] = biological target: interleukin 6 (IL-6), R&D Systems 206-IL-010 (UniProt P05231); experiment: SPR, value from the software's off-rate, beyond the sensitivity range of the instrument
[21] = biological target: glial cell line derived neurotrophic factor (GDNF), R&D Systems 212-GD-010 (UniProt P39905); experiment: c-PLA, buffer; GDNF 1.00E-08 M
Sequence of UniProt P39905 (P39905 78-211 limits assumed): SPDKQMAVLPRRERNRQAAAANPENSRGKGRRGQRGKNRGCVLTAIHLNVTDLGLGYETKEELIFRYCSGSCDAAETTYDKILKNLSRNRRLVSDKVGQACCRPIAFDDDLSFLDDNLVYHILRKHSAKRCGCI

[22] = biological target: glial cell line derived neurotrophic factor (GDNF), R&D Systems 212-GD-010 (UniProt P39905); experiment: c-PLA, buffer; GDNF 1.00E-09 M
[23] = biological target: glial cell line derived neurotrophic factor (GDNF), R&D Systems 212-GD-010 (UniProt P39905); experiment: c-PLA, buffer; GDNF 1.00E-10 M
[24] = biological target: glial cell line derived neurotrophic factor (GDNF), R&D Systems 212-GD-010 (UniProt P39905); experiment: c-PLA, buffer; GDNF 1.00E-11 M
[25] = biological target: glial cell line derived neurotrophic factor (GDNF), R&D Systems 212-GD-010 (UniProt P39905); experiment: c-PLA, buffer; GDNF 1.00E-12 M
[26] = biological target: glial cell line derived neurotrophic factor (GDNF), R&D Systems 212-GD-010 (UniProt P39905); experiment: c-PLA, buffer; GDNF 1.00E-13 M
[27] = biological target: glial cell line derived neurotrophic factor (GDNF), R&D Systems 212-GD-010 (UniProt P39905); experiment: c-PLA, buffer; GDNF 1.00E-14 M
[28] = biological target: glial cell line derived neurotrophic factor (GDNF), R&D Systems 212-GD-010 (UniProt P39905); experiment: t-PLA, buffer; GDNF 1.00E-08 M
[29] = biological target: glial cell line derived neurotrophic factor (GDNF), R&D Systems 212-GD-010 (UniProt P39905); experiment: t-PLA, buffer; GDNF 1.00E-09 M
[30] = biological target: glial cell line derived neurotrophic factor (GDNF), R&D Systems 212-GD-010 (UniProt P39905); experiment: t-PLA, buffer; GDNF 1.00E-10 M
[31] = biological target: glial cell line derived neurotrophic factor (GDNF), R&D Systems 212-GD-010 (UniProt P39905); experiment: t-PLA, buffer; GDNF 1.00E-11 M
[32] = biological target: glial cell line derived neurotrophic factor (GDNF), R&D Systems 212-GD-010 (UniProt P39905); experiment: t-PLA, buffer; GDNF 1.00E-12 M
[33] = biological target: glial cell line derived neurotrophic factor (GDNF), R&D Systems 212-GD-010 (UniProt P39905); experiment: t-PLA, buffer; GDNF 1.00E-13 M
[34] = biological target: glial cell line derived neurotrophic factor (GDNF), R&D Systems 212-GD-010 (UniProt P39905); experiment: t-PLA, buffer; GDNF 1.00E-14 M
[35] = biological target: glial cell line derived neurotrophic factor (GDNF), R&D Systems 212-GD-010 (UniProt P39905); experiment: SPR (Biacore T200), 1:1 global fit
[36] = biological target: glial cell line derived neurotrophic factor (GDNF), R&D Systems 212-GD-010 (UniProt P39905); experiment: SPR, isoaffinity graph
[37] = biological target: glial cell line derived neurotrophic factor (GDNF), R&D Systems 212-GD-010 (UniProt P39905); experiment: SPR (Biacore T200), biotinylated antibody on CAP chip, 1:1 fit
[38] = biological target: glial cell line derived neurotrophic factor (GDNF), R&D Systems 212-GD-010 (UniProt P39905); experiment: BLI (Octet RED), antibody on protein G sensors, 1:1 global fit
[39] = biological target: glial cell line derived neurotrophic factor (GDNF), R&D Systems 212-GD-010 (UniProt P39905); experiment: SPR, off-rate given by the software, beyond the sensitivity range of the instrument
[40] = biological target: glial cell line derived neurotrophic factor (GDNF), R&D Systems 212-GD-010 (UniProt P39905); experiment: SPR, value from the software's off-rate, beyond the sensitivity range of the instrument

Sequence of UniProt P05231 (P05231 30-212 limits assumed): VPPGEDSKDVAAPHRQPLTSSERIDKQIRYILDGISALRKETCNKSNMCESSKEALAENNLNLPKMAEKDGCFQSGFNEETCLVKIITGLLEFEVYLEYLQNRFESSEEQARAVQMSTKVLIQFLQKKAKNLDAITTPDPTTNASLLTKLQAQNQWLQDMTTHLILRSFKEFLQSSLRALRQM

“affinity-purified polyclonal anti-IL-6 antibody (R&D Systems AF-206-NA)” gave a Counts [1] of 137000, an SBR [1] of 7540 and a Counts [2] of 312000. For the same substance, the SBR [2] was 17200, the Counts [3] was 30800 and the SBR [3] was 1700. The Counts [4] was 1980, the SBR [4] was 109 and the Counts [5] was 141. The SBR [5] was 7.8, the Counts [6] was 84.3 and the SBR [6] was 4.6. The Counts [7] was 55.2, the SBR [7] was 3 and the Counts [8] was 2.05e+09. The SBR [8] was 1410, the Counts [9] was 3.87e+09 and the SBR [9] was 2670. It also gave a Counts [10] of 3.88e+08, an SBR [10] of 267 and a Counts [11] of 3.72e+07. For the same substance, the SBR [11] was 26, the Counts [12] was 1.16e+07 and the SBR [12] was 8. For the same substance, the Counts [13] was 2.68e+06, the SBR [13] was 1.8 and the Counts [14] was 3.03e+06. For the same substance, the SBR [14] was 2.1, the Kd [15] was under 4.3 pM and the koff [15] was under 1e-05 s⁻¹. The kon [15] was 2.33e+06 M⁻¹ s⁻¹, the Kd [16] was under 5 pM and the Kd [17] was under 4.3 pM. The koff [17] was under 1e-05 s⁻¹, the kon [17] was 2.3e+06 M⁻¹ s⁻¹ and the Kd [18] was under 2.49 pM. The koff [18] was under 1e-06 s⁻¹, the kon [18] was 402000 M⁻¹ s⁻¹ and the koff [19] was 4.65e-07 s⁻¹. The Kd [20] was 0.199 pM.

“affinity-purified polyclonal anti-GDNF antibody (R&D Systems AF-212-NA)” showed a Counts [21] of 214000, an SBR [21] of 14200 and a Counts [22] of 427000. For the same substance, the SBR [22] was 28300, the Counts [23] was 59400 and the SBR [23] was 3930. For the same substance, the Counts [24] was 3340, the SBR [24] was 221 and the Counts [25] was 283. For the same substance, the SBR [25] was 19, the Counts [26] was 172 and the SBR [26] was 11. For the same substance, the Counts [27] was 17, the SBR [27] was 1.1 and the Counts [28] was 1.02e+09. For the same substance, the SBR [28] was 1520, the Counts [29] was 2.24e+09 and the SBR [29] was 3320. It also gave a Counts [30] of 6.04e+08, an SBR [30] of 896 and a Counts [31] of 6.06e+07. It also gave an SBR [31] of 90, a Counts [32] of 6.17e+06 and an SBR [32] of 9.1. It also gave a Counts [33] of 7.19e+06, an SBR [33] of 11 and a Counts [34] of 1.92e+06. For the same substance, the SBR [34] was 2.8, the Kd [35] was under 0.71 pM and the koff [35] was under 1e-05 s⁻¹. For the same substance, the kon [35] was 1.35e+07 M⁻¹ s⁻¹, the Kd [36] was under 5 pM and the Kd [37] was under 0.71 pM. For the same substance, the koff [37] was under 1e-05 s⁻¹, the kon [37] was 1.4e+07 M⁻¹ s⁻¹ and the Kd [38] was under 2.54 pM. The koff [38] was under 1e-06 s⁻¹, the kon [38] was 393000 M⁻¹ s⁻¹ and the koff [39] was 2.34e-06 s⁻¹. The Kd [40] was 0.173 pM.
